As usually defined, the IC50 is the point on the concentration scale where inhibition reaches its midpoint.

The values that follow come from patent US20240132578A1.

Bounds are passed on as bounds.

What all share (assay): cell-based or functional assay
Assay [1] deals with HIV-1 JR-CSF Env I309A (HIV-1 (isolate JR-CSF, clade B)) (UniProt P20871).
The target in assay [2] is HIV-1 envelope glycoprotein (Env) of isolate 92BR020, on pseudovirus (HIV-1).
Assay [3] concerns the target HIV-1 JR-CSF Env T341A (HIV-1 isolate JR-CSF) (UniProt P20871).
A further assay addresses HIV-1 APV13 Env (HIV-1).
Assay [4] deals with HIV-1 JR-CSF Env F317A (HIV-1 (isolate JR-CSF, clade B)) (UniProt P20871).
Assay [5] has as its target HIV-1 JR-CSF Env D325A (HIV-1 isolate JR-CSF) (UniProt P20871).
Another assay concerns the target HIV-1 APV17 Env (HIV-1).
The target of assay [6] is HIV-1 JR-CSF Env T297A (HIV-1 (isolate JR-CSF, clade B)) (UniProt P20871).
Assay [7] deals with HIV-1 APV17 envelope glycoprotein (Env) on pseudovirus (HIV-1).
Assay [8] deals with HIV-1 MGRM-C-027 envelope glycoprotein (Env) on pseudovirus (HIV-1).
The target in assay [9] is HIV-1 JR-CSF Env R327A (HIV-1 isolate JR-CSF) (UniProt P20871).
Assay [10] addresses HIV-1 JR-CSF Env P299A (HIV-1 (isolate JR-CSF, clade B)) (UniProt P20871).
Assay [11] has as its target HIV-1 CMU02 envelope glycoprotein (Env) on pseudovirus (HIV-1).
Assay [12] deals with HIV-1 JR-CSF Env V292A (HIV-1 (isolate JR-CSF, clade B)) (UniProt P20871).
The target in assay [13] is HIV-1 92UG024 envelope glycoprotein (Env) on pseudovirus (HIV-1).
Assay [14] has as its target HIV-1 MGRM-D-018 envelope glycoprotein (Env) on pseudovirus (HIV-1).
The target of assay [15] is HIV-1 MGRM-D-001 envelope glycoprotein (Env) on pseudovirus (HIV-1).
Assay [16] has as its target HIV-1 92UG005 envelope glycoprotein (Env) on pseudovirus (HIV-1).
The target of assay [17] is HIV-1 JR-CSF Env N295A (HIV-1 (isolate JR-CSF, clade B)) (UniProt P20871).
The target in assay [18] is HIV-1 Env of isolate MGRM-A-014 (pseudovirus) (HIV-1).
Assay [19] addresses HIV-1 Env of isolate MGRM-A-011 (pseudovirus) (HIV-1).
Assay [20] has as its target HIV-1 Env of isolate MG RM-D-011 (subtype D) (HIV-1).
Assay [21] concerns the target HIV-1 Env of isolate APV-6 (Clade B) (HIV-1).
Assay [22] addresses HIV-1 94UG103 envelope protein (Env) on pseudotyped virus (HIV-1 strain 94UG103).
For assay [23], the target named is HIV-1 92TH021 envelope protein (Env) on pseudotyped virus (HIV-1 strain 92TH021).
Assay [24] addresses HIV-1 Env of isolate MGRM-Chronic-B-017 (subtype B), on pseudovirus (HIV-1).
For assay [25], the target named is HIV-1 Env of isolate 92UG024 (subtype D) (HIV-1).
For assay [26], the target named is HIV-1 envelope glycoprotein (Env) of isolate 94UG103 (HIV-1).
The target of assay [27] is HIV-1 Env of isolate MG RM-D-013 (subtype D) (HIV-1).
Assay [28] has as its target HIV-1 Env of isolate MGRM-Chronic-B-004 (subtype B), on pseudovirus (HIV-1).
The target in assay [29] is HIV-1 Env of isolate MGRM-Chronic-B-010 (subtype B), on pseudovirus (HIV-1).
The target in assay [30] is HIV-1 envelope glycoprotein (Env) of isolate 92UG031 (HIV-1).
The target in assay [31] is HIV-1 Env of isolate MGRM-Chronic-B-002 (subtype B), on pseudovirus (HIV-1).
For assay [32], the target named is HIV-1 Env of isolate MG RM-D-016 (subtype D) (HIV-1).
Assay [33] has as its target HIV-1 93IN905 envelope protein (Env) on pseudotyped virus (HIV-1 strain 93IN905).
Assay [34] has as its target HIV-1 Env of isolate MG RM-D-004 (subtype D) (HIV-1).

For 4858_P08 (PGT-123) (antibody), the Fold IC50 increase relative to wild-type in [1] came out at 1.6 fold; in assay [3] it was 0.3 fold; in assay [4] it was 3.1 fold; in assay [5] it was 64 fold; in [6] it was 0.3 fold. Further, the IC50, pseudovirus neutralization is 0.008 µg/mL in [2], 0.222 µg/mL with HIV-1 APV13 Env (HIV-1) and 0.18 µg/mL with HIV-1 APV17 Env (HIV-1).

Regarding 5343_B08 (PGT-135) (antibody), the Neutralization IC80 in assay [7] was greater than 10 µg/mL; in assay [8], greater than 10 µg/mL; in assay [11], greater than 10 µg/mL; in assay [13], 0.054 µg/mL; in assay [14], 0.2 µg/mL; in assay [15], greater than 10 µg/mL. Further, the Neutralization IC80 in assay [16] is greater than 10 µg/mL. The Neutralization IC90 in [7] was greater than 10 µg/mL; in assay [8], greater than 10 µg/mL; in [11], greater than 10 µg/mL; in [13] it was 0.122 µg/mL; in assay [14], greater than 10 µg/mL; in [15], greater than 10 µg/mL. Besides, the Neutralization IC90 in [16] was greater than 10 µg/mL. Further, the Neutralization IC95 in assay [7] was greater than 10 µg/mL; in [8] it was greater than 10 µg/mL; in assay [11] it was greater than 10 µg/mL; in [13] it was 0.267 µg/mL; in [14] it was greater than 10 µg/mL; in assay [15], greater than 10 µg/mL. In addition, in [16], the Neutralization IC95 was greater than 10 µg/mL. Besides, the neutralization IC50 in assay [7] was greater than 10 µg/mL; in assay [8] it was greater than 10 µg/mL; in assay [11], greater than 10 µg/mL; in assay [13] it was 0.0139 µg/mL; in [14] it was 0.0433 µg/mL; in [15] it was greater than 10 µg/mL. Also, in assay [16], the neutralization IC50 is greater than 10 µg/mL. The Fold IC50 increase relative to wild-type was 0.6 fold in assay [3]; 0.67 fold in assay [9]; 0.36 fold in assay [10]; 2 fold in [12]; greater than 18 fold in [17]; greater than 30 fold in assay [6].

As to 1496_C09 (PG9) (TCN-109) (antibody), the IC50 (µg/mL), pseudovirus neutralization in [18] stood at 1.25 µg/mL; in [19], 0.033 µg/mL; in assay [20], 0.071 µg/mL; in assay [25], 1.86 µg/mL; in assay [27] it was 0.021 µg/mL; in assay [32], 0.098 µg/mL. This substance yielded an IC50 (µg/mL), pseudovirus neutralization in assay [34] of 0.06 µg/mL. In [21], the IC90 (neutralization of pseudovirus) was found to be 1.96 µg/mL. The IC50, Neutralizing Antibody Assay, Virus/Ab Incubation 1 hour in assay [22] was found to be 0.334 µg/mL; in assay [23] it was 0.0612 µg/mL; in [33], 0.144 µg/mL. The IC50, Neutralizing Antibody Assay, Virus/Ab Incubation 18 hour in assay [22] stood at 0.0942 µg/mL; in assay [23], 0.0571 µg/mL; in assay [33] it was 0.0619 µg/mL. Also, the IC50, single-round pseudovirus neutralization was determined as 0.688 µg/mL in assay [24], 0.533 µg/mL in assay [28], 0.004 µg/mL in assay [29] and 3.44 µg/mL in [31]. For the same substance, the IC50 worked out at 0.34 µg/mL in assay [26] and 3.6 µg/mL in [30].
